B1: Serine/threonine-protein kinase STE20 (Saccharomyces cerevisiae), Q03497 (parent)
chain: MSNDPSAVSELPDKDSLDNGISNDNERAMGGNGDGGDGLRLPRTTGTLNVNALQKGTNAAHEAGGYKSMDPAKNAETTNDDDNNVVSLDDPIQFTRVSSSSVISGMSSSMSPHSNIDETKSLEAVTPNINTSNITPDHSADNTFSTINASESDHQFNDTLLSKLSLTDSTETIENNATVKHQQPVASSTVNSNKSSTDIRRATPVSTPVISKPSMTTTPRQINSASHSLSNPKHKQHKPKVKPSKPEAKSKPVSVKKSFPSKNPLKNSSPPKKQTEKSYYSSSSKKRKSGSNSGTLRMKDVFTSFVQNIKRNSQDDKRASSSSNNSSSSSITTALRISTPYNAKHIHHVGVDSKTGEYTGLPEEWEKLLTSSGISKREQQQNMQAVMDIVKFYQDVTETNGEDKMFKTFNTTTGLPGSPQVSTPPANSFNKFPPSTSDSHNYGSRTGTPMSNHVMSPTLNTDSSSANGKFIPSRPAPKPPSSASASAPIIKSPVMNSAANVSPLKQTHAPTTPNRTSPNRSSISRNATLKKEEQPLPPIPPTKSKTSPIISTAHTPQQVAQSPKAPAQETVTTPTSKPAQARSLSKELNEKKREERERRKKQLYAKLNEICSDGDPSTKYANLVKIGQGASGGVYTAYEIGTNVSVAIKQMNLEKQPKKELIINEILVMKGSKHPNIVNFIDSYVLKGDLWVIMEYMEGGSLTDVVTHCILTEGQIGAVCRETLSGLEFLHSKGVLHRDIKSDNILLSMEGDIKLTDFGFCAQINELNLKRTTMVGTPYWMAPEVVSRKEYGPKVDIWSLGIMIIEMIEGEPPYLNETPLRALYLIATNGTPKLKEPENLSSSLKKFLDWCLCVEPEDRASATELLHDEYITEIAEANSSLAPLVKLARLKKVAENMDADEDNDDDNDNEHINKTNNCDDNNDSKETVNLDVTEDDKQK

Variants of: B1
Details: with cdc42_yeast CDC42, P19073
Sequence of cdc42_yeast CDC42, P19073 (P19073 whole entry): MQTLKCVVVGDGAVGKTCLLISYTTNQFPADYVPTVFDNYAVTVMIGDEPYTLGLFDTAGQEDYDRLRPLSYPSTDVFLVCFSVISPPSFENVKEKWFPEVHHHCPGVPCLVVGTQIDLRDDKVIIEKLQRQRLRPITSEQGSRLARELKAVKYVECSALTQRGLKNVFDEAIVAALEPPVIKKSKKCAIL

Row | effect of a mutation on the interaction | Variant
1 | decreasing interaction | S338A;H345G

From IntAct's records for PubMed 11940652
